According to paper doi:10.1101/742957:
“And” between values parts separate entries of the source, which are not always exact repeats. Identical values can stand only once.

Biological target: Recombinant human transferrin (human) (UniProt P02787)
Assay: SEC-MALS

Recombinant human transferrin (from UniProt P02787 20-698) (natural protein)
percent dimer: 12% | percent trimer: 2% | stoichiometry N: 2 and 3
